Test [1] concerns the target TAU-412 target protein (human) (UniProt P10636). Description: sandwich Immuno Q-Amp assay: capture MN1010, TAU-412 10 ng per well, biotin MN1000 reporter, avidin-biotin-MNVplus template, Q-beta replicase, SYBR Green fluorescence; Startingblock blocking.
Test [2] shares this target. The test is described as follows: sandwich Immuno Q-Amp assay: capture MN1010, TAU-412 10 ng per well, biotin MN1000 reporter, avidin-biotin-MNVplus template, Q-beta replicase, SYBR Green fluorescence; Superblock blocking.

UniProt P10636, sequence (P10636 other isoform, or with tags, fused parts or gaps): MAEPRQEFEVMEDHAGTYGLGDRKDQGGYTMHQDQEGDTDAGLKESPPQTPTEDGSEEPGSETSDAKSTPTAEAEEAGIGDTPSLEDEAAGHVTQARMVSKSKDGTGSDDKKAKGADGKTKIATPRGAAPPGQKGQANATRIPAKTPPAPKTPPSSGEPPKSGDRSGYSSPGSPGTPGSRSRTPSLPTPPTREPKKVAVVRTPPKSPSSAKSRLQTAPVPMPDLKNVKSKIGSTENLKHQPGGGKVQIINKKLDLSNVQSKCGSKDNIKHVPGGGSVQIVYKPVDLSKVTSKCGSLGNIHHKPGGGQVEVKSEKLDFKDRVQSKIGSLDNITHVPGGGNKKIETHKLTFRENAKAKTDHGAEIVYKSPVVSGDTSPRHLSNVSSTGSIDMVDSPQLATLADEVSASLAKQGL

For “anti-TAU, biotinylated antibody MN-1000 (Pierce, #MN1000B)”, the RT (response time, starting block blocking) in test [1] is 13.5 min. Also, the RT (response time, Superblock blocking) in test [2] stood at 15 min.

The record behind these values is patent US20060199194A1.
